These results are taken from patent publication US20210139582A1.

The target in test [1] is C-terminus biotinylated monomeric human CD32a^R (FcγRIIa, arginine-131 variant), recombinant (human) (UniProt P12318). The experiment in a line: SPR, estimated steady state KD, monomeric IgG, pH 7.4.
The target in test [2] is C-terminus biotinylated monomeric human CD32a^H (FcγRIIa, histidine-131 variant), recombinant (human) (UniProt P12318). The test is described as above.
Sequence of C-terminus biotinylated monomeric human CD32a^H (FcγRIIa, histidine-131 variant), recombinant (human) (P12318 34-218 limits assumed, change not shown): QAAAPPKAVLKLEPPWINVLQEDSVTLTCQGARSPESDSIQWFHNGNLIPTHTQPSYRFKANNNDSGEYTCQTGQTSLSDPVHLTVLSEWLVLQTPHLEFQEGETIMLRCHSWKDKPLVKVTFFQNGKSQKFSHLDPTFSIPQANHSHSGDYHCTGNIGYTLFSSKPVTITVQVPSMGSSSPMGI

Sequence of C-terminus biotinylated monomeric human CD32a^R (FcγRIIa, arginine-131 variant), recombinant (human) (P12318 other isoform, or with tags, fused parts or gaps mutant): as the sequence (P12318 34-218 limits assumed, change not shown) above, with H134R counted along it
Sequence of anti-NIP mouse IgG2a (mIgG2a^WT) (antibody) (P01863 whole entry): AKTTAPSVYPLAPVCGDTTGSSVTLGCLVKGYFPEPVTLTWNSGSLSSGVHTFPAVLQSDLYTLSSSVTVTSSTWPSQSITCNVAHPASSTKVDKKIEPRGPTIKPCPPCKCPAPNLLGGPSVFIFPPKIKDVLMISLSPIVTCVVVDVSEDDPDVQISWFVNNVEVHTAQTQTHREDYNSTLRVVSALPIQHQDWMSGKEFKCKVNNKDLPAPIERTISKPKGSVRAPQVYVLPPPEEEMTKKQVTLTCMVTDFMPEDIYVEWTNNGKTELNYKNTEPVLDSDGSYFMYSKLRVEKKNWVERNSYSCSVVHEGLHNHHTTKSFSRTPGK

In general, Kd refers to the free concentration of one partner at which half of the binding sites on the other are occupied at equilibrium, for simple one-to-one binding. As to “anti-NIP chimeric IgG with wild type human IgG1 Fc and murine anti-NIP antigen-binding domain (hIgG1^WT) (antibody)”, the Kd in test [1] is 2 µM; in test [2] it was 1.3 µM. For the substance “anti-NIP hIgG1-I253A/H310A/H435A (hIgG1^IHH) (from UniProt P01857 1-330) (antibody)”, the Kd in test [1] was 3.7 µM.

Consider “anti-NIP hIgG1-M252Y/S254T/T256E/H433K/N434F (hIgG1^MST/HN) (from UniProt P01857 1-330) (antibody)”, for which the Kd in test [1] is 3.8 µM.

Consider anti-NIP hIgG2 (hIgG2^WT) (antibody), for which the Kd in test [1] was 5.2 µM; in test [2] it was 1.4 µM. The like results for “anti-NIP mouse IgG1 (mIgG1^WT) (antibody)” were, in that order, 0.8 µM and 8.1 µM. The like results for “anti-NIP mouse IgG2a (mIgG2a^WT) (antibody)” were, in that order, 3.6 µM and 3.4 µM. As for “anti-NIP mouse IgG2b (mIgG2b^WT) (antibody)”, the Kd in test [1] is 4.5 µM; in test [2], 5 µM.
